Experimental data reported in patent US20250340661A1, “ANTI CD40 ANTIBODY, ANTIGEN BINDING FRAGMENT AND MEDICAL USE THEREOF” (Jiangsu Hengrui Pharmaceuticals Co., Ltd., priority 2021, published 2025).

How the values were obtained:
[1] = molecular target: human CD40 on the cell surface (human) (UniProt P25942); assay: flow cytometry on Raji cells, Alexa Fluor 488 anti-human IgG (H+L) detection
[2] = molecular target: his-tagged human CD40 (h-CD40-his) recombinant protein (human) (UniProt P25942); assay: SPR (Biacore), antibody captured on anti-human Fc chip, His-tagged CD40 as analyte, 1:1 model
his-tagged human CD40 (h-CD40-his) recombinant protein (human), sequence (P25942 21-193 limits assumed): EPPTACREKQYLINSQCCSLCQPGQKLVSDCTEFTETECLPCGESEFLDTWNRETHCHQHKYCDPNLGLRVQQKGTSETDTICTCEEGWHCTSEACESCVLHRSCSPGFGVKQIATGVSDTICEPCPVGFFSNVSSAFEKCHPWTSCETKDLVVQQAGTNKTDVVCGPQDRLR

[3] = molecular target: human CD40 on the cell surface (human) (UniProt P25942); assay: cell-based or functional assay
[4] = molecular target: human CD40 on the cell surface (human) (UniProt P25942); assay: flow cytometry on Raji cells, AF647 anti-human IgG detection

human CD40 on the cell surface (human), sequence (P25942 21-277): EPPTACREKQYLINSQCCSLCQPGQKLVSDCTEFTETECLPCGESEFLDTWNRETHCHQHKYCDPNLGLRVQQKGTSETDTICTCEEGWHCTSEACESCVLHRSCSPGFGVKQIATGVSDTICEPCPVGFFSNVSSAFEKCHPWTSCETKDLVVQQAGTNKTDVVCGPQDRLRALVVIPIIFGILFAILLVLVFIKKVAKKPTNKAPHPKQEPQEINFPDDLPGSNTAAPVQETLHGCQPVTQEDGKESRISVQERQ

- EC50 [1]: 1.01 nM
- Kd [2]: 0.205 nM
- koff [2]: 0.000141 s⁻¹
- kon [2]: 688000 M⁻¹ s⁻¹
- B cell activation assay, CD19+CD69+ % IC50 [3]: 0.14 nM
- B cell activation assay, CD19+CD69+ % Maximum inhibition rate [3]: 95%
- B cell activation assay, CD19+CD69+ MFI IC50 [3]: 0.07 nM
- B cell activation assay, CD19+CD69+ MFI Maximum inhibition rate [3]: 110%
- IC50 for the inhibition of CD40 reporter gene cell activity (Assay 1) [3]: 0.36 nM
- IC50 for the inhibition of CD40 reporter gene cell activity (Assay 2) [3]: 0.35 nM
- IC50 in DC cell activation assay system, CD80 MFI [3]: 1.19 nM
- IC50 in DC cell activation assay system, CD86 MFI [3]: 1.93 nM
- IC50 in DC cell activation assay system, IL-12/23 p40 [3]: 0.68 nM
- IC50 in DC cell activation assay system, TNFα [3]: 0.35 nM
- reporter gene cell activity IC50 (HEK-Blue CD40L cells, SEAP) [3]: 0.272 nM
- EC50 [4]: 2.41 nM
Substance: anti-CD40 antagonistic antibody CFZ533 (iscalimab)
